Source: patent US5851983
No end group written: not given here.

Target: Polymorphonuclear leukocyte elastase from human sputum (EPC Co.; Funakoshi Yakuhin) (human) (UniProt P08246)

IC50: 300 nM
B1: by-product oligomer formed in Example 17 (peptide)
chain: RKPGKCPVTYGQCLMLNPPNFCEMDGQCKRDLKCCMGMCGKSCVSPVKA
modifications: also: oligomer formed during refolding, number of chains and linkages not given here
